Laboratory results from the supplement of paper PMC10724198.
± gives the standard deviation of the averaged measurements.

Tested on: Saccharomyces cerevisiae
Assay: protein stability index of tFT-peptide fusion (C-terminal peptide) (PSI (0-1 scale)); higher = more stable (slower turnover)
Conditions: temperature: 30 C
Method: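 MPS profiling in S. cerevisiae of the yeast C-terminome library: the last 12 aa of each annotated ORF are fused to the C-terminus of a sfGFP-mCherry timer, after a GGGS linker. Cells are FACS-sorted into 8 mCherry/sfGFP bins and deep-sequenced. PSI runs from 0 (unstable) to 1 (stable); wild type and das1Δ backgrounds, two technical replicates each.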

[1] = genetic background: das1 deletion

Sequence	protein stability index [1]	protein stability index (genetic background: wild type)
NWSNQQINVQSS [PHM8 C-terminal 12 aa]	0.7172 ± 0.0032	0.674 ± 0.018
NYEITPYENVHV [TOS2 C-terminal 12 aa]	0.682 ± 0.026	0.7131 ± 0.0041
NYLFKLMGPSSD [VTC2 C-terminal 12 aa]	0.687 ± 0.032	0.655 ± 0.008
PAAVFAETLKHD [RPL4B C-terminal 12 aa]	0.686 ± 0.016	0.705 ± 0.011
PDDQIHSILLSL [MET13 C-terminal 12 aa]	0.708 ± 0.019	0.714 ± 0.018
PGGGGGSPLIFL [YHR165W-A C-terminal 12 aa]	0.7299 ± 0.0012	0.728 ± 0.02
PGTRGRVASKFL [MIM1 C-terminal 12 aa]	0.7098 ± 0.0037	0.705 ± 0.0099
PISHVNNNDTHA [SLM3 C-terminal 12 aa]	0.727 ± 0.014	0.688 ± 0.0079
PKYKEEESRSAV [RSN1 C-terminal 12 aa]	0.678 ± 0.035	0.668 ± 0.019
PLTNNIRPISIM [YJR115W C-terminal 12 aa]	0.6893 ± 0.0007	0.6548 ± 0.005
PMIWHLVKKQWK [TOM5 C-terminal 12 aa]	0.686 ± 0.011	0.682 ± 0.052
PPNSTSTNPYSS [SKG3 C-terminal 12 aa]	0.729 ± 0.015	0.7181 ± 0.0014
PPPQESTEKEEK [MRP13 C-terminal 12 aa]	0.709 ± 0.031	0.668 ± 0.0098
PPSPQEELLIEL [VPS27 C-terminal 12 aa]	0.721 ± 0.017	0.7051 ± 0.0024
PRERLLSEYCSS [MET8 C-terminal 12 aa]	0.71885 ± 0.00032	0.7199 ± 0.0033
PSNASNTTTRRP [YKR045C C-terminal 12 aa]	0.703 ± 0.032	0.6901 ± 0.0053
PSYPSEKISYSK [ADO1 C-terminal 12 aa]	0.7017 ± 0.0027	0.726 ± 0.065
PTIVGGLYYQRP [AAR2 C-terminal 12 aa]	0.7 ± 0.0021	0.696 ± 0.012
QAKKSNSCCIIM [YKT6 C-terminal 12 aa]	0.732 ± 0.034	0.766 ± 0.06
QAKLTAATNAKQ [PDC1 C-terminal 12 aa]	0.698 ± 0.018	0.716 ± 0.035
QEGGDNTKIKQN [RNP1 C-terminal 12 aa]	0.731 ± 0.023	0.638 ± 0.024

Sequence	protein stability index [1]	protein stability index (genetic background: wild type)
QFFFTSRQKNYV [ERP4 C-terminal 12 aa]	0.707 ± 0.014	0.654 ± 0.01
QIADDRPWCRME [YHC3 C-terminal 12 aa]	0.705 ± 0.01	0.6831 ± 0.0064
QIAFAWQNKPRL [PXP1 C-terminal 12 aa]	0.815 ± 0.029	0.793 ± 0.045
QKAQDVDVSMQD [RPN13 C-terminal 12 aa]	0.68 ± 0.022	0.654 ± 0.026
QKRKSRILSFIK [UBP9 C-terminal 12 aa]	0.7208 ± 0.006	0.732 ± 0.047
QLINGRKIIAGN [MOT2 C-terminal 12 aa]	0.6718 ± 0.0014	0.7 ± 0.09
QLVKLQLVELKL [LAM5 C-terminal 12 aa]	0.6108 ± 0.0024	0.602 ± 0.026
QMQQMAKQFGMG [SRP54 C-terminal 12 aa]	0.6863 ± 0.0024	0.68513 ± 0.00031
QMSAMTEKFGKL [YKL068W-A C-terminal 12 aa]	0.726 ± 0.0095	0.693 ± 0.015
QNEICQYDNTSP [YGR109W-B C-terminal 12 aa]	0.7173 ± 0.0057	0.694 ± 0.012
QNLLSAYRMNHK [AVO1 C-terminal 12 aa]	0.70387 ± 0.00067	0.64 ± 0.021
QQGGAGADQKTE [EMC10 C-terminal 12 aa]	0.6815 ± 0.0066	0.656 ± 0.028
QQQQQQQQQQQQ [PUB1 C-terminal 12 aa]	0.71 ± 0.029	0.672 ± 0.052
QVSLLLGFSSRS [MRX20 C-terminal 12 aa]	0.698 ± 0.0012	0.7 ± 0.011
QYDYELIQVQCS [PPN2 C-terminal 12 aa]	0.431 ± 0.043	0.51 ± 0.032
QYVLYKNEAGDK [AIM39 C-terminal 12 aa]	0.689 ± 0.017	0.698 ± 0.019
RAVTKYSSSTQA [HTB1 C-terminal 12 aa]	0.7067 ± 0.0046	0.695 ± 0.034
RDLFEIYQKMMQ [MUK1 C-terminal 12 aa]	0.725 ± 0.02	0.706 ± 0.056
RDNQIPDKEIGI [CAF16 C-terminal 12 aa]	0.6731 ± 0.0026	0.704 ± 0.072
REAKNLPKPSFL [EDC1 C-terminal 12 aa]	0.70153 ± 0.00024	0.698 ± 0.0091
RELLKSLVLSHR [RSM23 C-terminal 12 aa]	0.703 ± 0.0085	0.683 ± 0.019

Sequence	protein stability index [1]	protein stability index (genetic background: wild type)
RFLDYVRELESF [PDX1 C-terminal 12 aa]	0.698 ± 0.014	0.70618 ± 0.0004
RGSEHYTKRKKI [UBS1 C-terminal 12 aa]	0.687 ± 0.022	0.6822 ± 0.0035
RIELSKYYNTNL [YPD1 C-terminal 12 aa]	0.6986 ± 0.0043	0.716 ± 0.059
RIIEYFEEYQCW [FRE6 C-terminal 12 aa]	0.712 ± 0.014	0.731 ± 0.042
RKEDDKRDTQEK [SOF1 C-terminal 12 aa]	0.713 ± 0.024	0.67 ± 0.019
RKELEKGKKNSK [YLR363W-A C-terminal 12 aa]	0.694 ± 0.025	0.703 ± 0.054
RKFVFNPPKPRK [CYT1 C-terminal 12 aa]	0.691 ± 0.025	0.694 ± 0.056
RKYPNQCGTISN [EXG1 C-terminal 12 aa]	0.712 ± 0.011	0.674 ± 0.03
RLQQVRKNPYPF [OPI7 C-terminal 12 aa]	0.7357 ± 0.0072	0.712 ± 0.032
RLYDRINGKPHD [MRP10 C-terminal 12 aa]	0.671 ± 0.014	0.668 ± 0.021
RNVYSTKTRCIE [TDA10 C-terminal 12 aa]	0.681 ± 0.017	0.699 ± 0.023
RQDNNHNGSSNG [MET32 C-terminal 12 aa]	0.6936 ± 0.0016	0.706 ± 0.025
RQFKEILTVKEE [RRP40 C-terminal 12 aa]	0.6732 ± 0.0037	0.687 ± 0.013
RQNDKGAIKKSK [YEA4 C-terminal 12 aa]	0.676 ± 0.019	0.719 ± 0.049
RRAAESGKLKME [YNL108C C-terminal 12 aa]	0.693 ± 0.029	0.698 ± 0.067
RRDYWLSKGQAL [TRF5 C-terminal 12 aa]	0.7173 ± 0.0032	0.725 ± 0.032
RREATRISDLLK [FMS1 C-terminal 12 aa]	0.695 ± 0.014	0.703 ± 0.06
RRRASKNAFRGM [ENP2 C-terminal 12 aa]	0.696 ± 0.02	0.692 ± 0.014
RSRKWKRRLFHL [PEX32 C-terminal 12 aa]	0.825 ± 0.038	0.6 ± 0.12
RSRSINGDWRKD [PAN5 C-terminal 12 aa]	0.6835 ± 0.0046	0.6967 ± 0.0028
RSTFLMHGRLAT [MAK3 C-terminal 12 aa]	0.707 ± 0.02	0.702 ± 0.019

Sequence	protein stability index [1]	protein stability index (genetic background: wild type)
RVAVIEDDEDED [LEO1 C-terminal 12 aa]	0.688 ± 0.0068	0.692 ± 0.021
RVGQTNSPSDSQ [DFM1 C-terminal 12 aa]	0.706 ± 0.0087	0.695 ± 0.049
RVKILHRDDTKK [UPF3 C-terminal 12 aa]	0.707 ± 0.024	0.732 ± 0.093
RWHIQRITSPLS [STP22 C-terminal 12 aa]	0.74 ± 0.048	0.719 ± 0.028
RYKILDLIISKL [UTP6 C-terminal 12 aa]	0.789 ± 0.042	0.683 ± 0.04
RYVIFQSCGLIL [MRX8 C-terminal 12 aa]	0.657 ± 0.031	0.683 ± 0.012
SAQDSDIDLQDA [MCM7 C-terminal 12 aa]	0.695 ± 0.0088	0.682 ± 0.031
SASSTPSSTTMS [SPT20 C-terminal 12 aa]	0.682 ± 0.0019	0.681 ± 0.011
SCRTTPQVRARA [YLR279W C-terminal 12 aa]	0.6944 ± 0.0046	0.6946 ± 0.0043
SDENIQPELRGQ [ABF1 C-terminal 12 aa]	0.675 ± 0.018	0.723 ± 0.047
SEETKKSCCSGK [CUP1-1 C-terminal 12 aa]	0.695 ± 0.01	0.757 ± 0.048
SEINDDFHQWAQ [DEP1 C-terminal 12 aa]	0.727 ± 0.021	0.698 ± 0.0071
SEIVDISQLPPG [ILV6 C-terminal 12 aa]	0.6812 ± 0.0022	0.7033 ± 0.0062
SFDVELVGLKFV [YHL019W-A C-terminal 12 aa]	0.7172 ± 0.005	0.695 ± 0.029
SFFCRSSSKSSK [YSC83 C-terminal 12 aa]	0.7232 ± 0.0053	0.724 ± 0.0074
SGFFSSLKTMFN [PAR32 C-terminal 12 aa]	0.719 ± 0.027	0.726 ± 0.058
SGNNLGICFYKE [NUP170 C-terminal 12 aa]	0.6733 ± 0.005	0.677 ± 0.019
SHYHMWPIKRII [YMR082C C-terminal 12 aa]	0.6853 ± 0.0064	0.567 ± 0.011
SIDELETEISTW [BCP1 C-terminal 12 aa]	0.718 ± 0.015	0.6932 ± 0.0068
